Measured values taken from patent publication US20090162366A1.

Tests used:
[1] = target: T1, M2KTGEKS peptide conjugated with BSA (influenza A virus, A/Quail/Arkansas/16309-7/94 (H7N3NSA)); assay: peptide-BSA ELISA; legend: EC50 > 10^-8M: -; conditions: remark: other sources report otherwise
[2] = target: T2, M2GHTGKS peptide conjugated with BSA (influenza A virus, A/chicken/HongKong/SF1/03 (H9N2)); assay: peptide-BSA ELISA; legend: EC50 > 10^-8M: -; conditions: remark: other sources report otherwise
[3] = target: T3, M2LTKGS peptide conjugated with BSA (influenza A virus, A/Hong Kong/542/97 (H5N1)); assay: peptide-BSA ELISA; legend: EC50 > 10^-8M: -; conditions: remark: other sources report otherwise
[4] = target: T4, M2HTGEKS peptide conjugated with BSA (influenza A virus, A/chicken/California/1002a/00 (H6N2)); assay: peptide-BSA ELISA; legend: EC50 > 10^-8M: -; conditions: remark: other sources report otherwise
[5] = target: T5, M2LTGS peptide conjugated with BSA (influenza A virus, A/Hong Kong/156/97 (H5N1)); assay: peptide-BSA ELISA; legend: EC50 > 10^-8M: -; conditions: remark: other sources report otherwise
[6] = target: T6, M2PHTGS peptide conjugated with BSA (influenza A virus, A/chicken/HongKong/YU427/03 (H9N2)); assay: peptide-BSA ELISA; legend: EC50 > 10^-8M: -; conditions: remark: other sources report otherwise
[7] = target: T7, M2KGENS peptide conjugated with BSA (influenza A virus, A/Turkey/VA/158512/02 (H7N2)); assay: peptide-BSA ELISA; legend: EC50 > 10^-8M: -; conditions: remark: other sources report otherwise
[8] = target: M2DLTGS peptide conjugated with BSA (influenza A virus, A/Hong Kong/485/97 (H5N1)); assay: peptide-BSA ELISA (++ EC50<10^-9M; + 10^-9M<EC50<10^-8M); conditions: remark: other sources report otherwise
[9] = target: M2EG peptide conjugated with BSA (influenza A virus, A/New York/687/1995 (H3N2)); assay: as above; conditions: remark: other sources report otherwise
[10] = target: M2SG peptide conjugated with BSA (influenza A virus, A/swine/Tennessee/25/77 (H1N1)); assay: as above; conditions: remark: other sources report otherwise
[11] = target: M2TES peptide conjugated with BSA (influenza A virus, A/Viet Nam/1203/2004 (H5N1)); assay: as above; conditions: remark: other sources report otherwise
[12] = target: T1, M2KTGEKS peptide conjugated with BSA …; assay: peptide-BSA ELISA; conditions: remark: other sources report otherwise
[13] = target: T2, M2GHTGKS peptide conjugated with BSA …; assay: peptide-BSA ELISA; conditions: remark: other sources report otherwise
[14] = target: T3, M2LTKGS peptide conjugated with BSA …; assay: peptide-BSA ELISA; conditions: remark: other sources report otherwise
[15] = target: T4, M2HTGEKS peptide conjugated with BSA …; assay: peptide-BSA ELISA; conditions: remark: other sources report otherwise
[16] = target: T5, M2LTGS peptide conjugated with BSA …; assay: peptide-BSA ELISA; conditions: remark: other sources report otherwise
[17] = target: T6, M2PHTGS peptide conjugated with BSA …; assay: peptide-BSA ELISA; conditions: remark: other sources report otherwise
[18] = target: T7, M2KGENS peptide conjugated with BSA …; assay: peptide-BSA ELISA; conditions: remark: other sources report otherwise
[19] = target: M2HTGEKS (influenza A virus, A/chicken/California/1002a/00 (H6N2)); conditions: remark: other sources report otherwise
[20] = target: M2LTKGS (influenza A virus, A/Hong Kong/542/97 (H5N1)); conditions: remark: other sources report otherwise
[21] = target: M2GHTGKS (influenza A virus, A/chicken/HongKong/SF1/03 (H9N2)); conditions: remark: other sources report otherwise
[22] = target: M2KGENS (influenza A virus, A/Turkey/VA/158512/02 (H7N2)); conditions: remark: other sources report otherwise
[23] = target: M2KTGEKS (influenza A virus, A/Quail/Arkansas/16309-7/94 (H7N3NSA)); conditions: remark: other sources report otherwise
[24] = target: M2PHTGS (influenza A virus, A/chicken/HongKong/YU427/03 (H9N2)); conditions: remark: other sources report otherwise
[25] = target: M2LTGS (influenza A virus, A/Hong Kong/156/97 (H5N1)); conditions: remark: other sources report otherwise
[26] = target: CM13 (influenza A virus); assay: ELISA on peptide, Ab 10 µg/ml
[27] = target: CM15 (influenza A virus); assay: ELISA on peptide, Ab 10 µg/ml
[28] = target: M12 (influenza A virus); assay: ELISA on peptide, Ab 10 µg/ml
[29] = target: NM14 (influenza A virus); assay: ELISA on peptide, Ab 10 µg/ml
[30] = target: NM12 (influenza A virus); assay: ELISA on peptide, Ab 10 µg/ml
[31] = target: NM11 (influenza A virus); assay: ELISA on peptide, Ab 10 µg/ml
[32] = target: NM13 (influenza A virus); assay: ELISA on peptide, Ab 10 µg/ml
[33] = target: CM12 (influenza A virus); assay: ELISA on peptide, Ab 10 µg/ml
[34] = target: CM16 (influenza A virus); assay: ELISA on peptide, Ab 10 µg/ml
[35] = target: CM14 (influenza A virus); assay: ELISA on peptide, Ab 10 µg/ml
[36] = target: CM17 (influenza A virus); assay: ELISA on peptide, Ab 10 µg/ml
[37] = target: T2, M2GHTGKS peptide conjugated with BSA …; assay: peptide-BSA ELISA (++ EC50<10^-9M; + 10^-9M<EC50<10^-8M); conditions: remark: other sources report otherwise
[38] = target: M2LTGEKS-BSA conjugate (influenza A virus, A/Hong Kong/1074/99 (H9N2)); assay: as above; conditions: remark: other sources report otherwise
[39] = target: M2TGEK-BSA conjugate (influenza A virus, A/Netherlands/33/03 (H7N7)); assay: as above; conditions: remark: other sources report otherwise
[40] = target: T6, M2PHTGS peptide conjugated with BSA …; assay: as above; conditions: remark: other sources report otherwise
[41] = target: M2-BSA conjugate (influenza A virus, A/Hong Kong/1/68 (H3N2)); assay: as above
[42] = target: T7, M2KGENS peptide conjugated with BSA …; assay: as above; conditions: remark: other sources report otherwise
[43] = target: NM16 (influenza A virus); assay: ELISA on peptide, Ab 10 µg/ml
[44] = target: M2 peptide (influenza A virus, A/Hong Kong/1/68 (H3N2)); assay: ELISA on peptide, Ab 10 µg/ml
[45] = target: NM17 (influenza A virus); assay: ELISA on peptide, Ab 10 µg/ml
[46] = target: NM15 (influenza A virus); assay: ELISA on peptide, Ab 10 µg/ml

B1: C40G1 (antibody, V domains shown)
VH: QLQLQESGPGLVKPSETLSLTCTVSGGSISSSFYYCGWIRQPPGKGLEWIGSIYYRGSTYYNPSLKSRVTISVDTSKNQFSLKLSSVTAADTAVYYCARRVTMVRGVKGDYFDYWGQGTLVTVSS
VL: DIQMTQSPSSLSASVGDRVTITCRASQGISSWLAWYQQKPEKVPKSLIYAASSLQSGVPSRFSGSGSGTDFTLTISSLQPEDFATYYCQQYNYYPLTFGGGTKVEIKR
EC50 [1]: > 10 nM | EC50 [2]: > 10 nM | EC50 [3]: > 10 nM | EC50 [4]: > 10 nM | EC50 [5]: > 10 nM | EC50 [6]: > 10 nM | EC50 [7]: > 10 nM | EC50 [8]: 1 to 10 nM | EC50 [9]: < 1 nM | EC50 [10]: < 1 nM | EC50 [11]: < 1 nM | EC50 [12]: > 10 nM | EC50 [13]: > 10 nM | EC50 [14]: > 10 nM | EC50 [15]: > 10 nM | EC50 [16]: > 10 nM | EC50 [17]: > 10 nM | EC50 [18]: > 10 nM | % of O.D. on M2 (SEQ ID NO:1) [19]: < 10% | % of O.D. on M2 (SEQ ID NO:1) [20]: < 10% | % of O.D. on M2 (SEQ ID NO:1) [21]: < 10% | % of O.D. on M2 (SEQ ID NO:1) [22]: < 10% | % of O.D. on M2 (SEQ ID NO:1) [23]: < 10% | % of O.D. on M2 (SEQ ID NO:1) [24]: < 10% | % of O.D. on M2 (SEQ ID NO:1) [25]: < 10% | ELISA(OD450) [26]: 0.11 OD450 | ELISA(OD450) [27]: 0.11 OD450 | ELISA(OD450) [28]: 2.71 OD450 | ELISA(OD450) [29]: 2.49 OD450 | ELISA(OD450) [30]: 0.12 OD450 | ELISA(OD450) [31]: 0.31 OD450 | ELISA(OD450) [32]: 2.41 OD450 | ELISA(OD450) [33]: 0.1 OD450 | ELISA(OD450) [34]: 0.76 OD450 | ELISA(OD450) [35]: 0.1 OD450 | ELISA(OD450) [36]: 2.78 OD450

B2: L66 (antibody, V domains shown)
VH: EVQLVESGGGVVRPGGSLRLSCAASGFTFDDYGMSWVRQAPGKGLEWVSGINWNGGSTGYADSVKGRFTISRDNAKNSLYLQMNSLRAEDTALYYCARDRVTMVRGVIMDYYGMDVWGQGTTVTVSS
VL: QTVVTQEPSLTVSPRGTVTLTCSSSTGAVTSGYYPGWFQLKPGQAPMSLIYSARKKHSWTPARFSGSLLGGKAALTLSGVQPEDEAEYYCLLYYGGAYVFGTGTKVTVLG
EC50 [37]: < 1 nM | EC50 [38]: < 1 nM | EC50 [39]: < 1 nM | EC50 [9]: 1 to 10 nM | EC50 [40]: < 1 nM | EC50 [41]: < 1 nM | EC50 [11]: < 1 nM | EC50 [42]: < 1 nM | ELISA(OD450) [26]: 0.08 OD450 | ELISA(OD450) [27]: 0.09 OD450 | ELISA(OD450) [29]: 0.22 OD450 | ELISA(OD450) [43]: 1.04 OD450 | ELISA(OD450) [30]: 0.12 OD450 | ELISA(OD450) [31]: 0.09 OD450 | ELISA(OD450) [32]: 0.13 OD450 | ELISA(OD450) [33]: 0.08 OD450 | ELISA(OD450) [44]: 0.51 OD450 | ELISA(OD450) [34]: 0.09 OD450 | ELISA(OD450) [45]: 0.99 OD450 | ELISA(OD450) [35]: 0.08 OD450 | ELISA(OD450) [36]: 0.12 OD450 | ELISA(OD450) [46]: 0.2 OD450
